In article PMC11218954 (PLOS ONE, 2024) one finds Kd data, which are given here for eight molecules.

Substitutions are numbered along the chain they refer to. Values joined by “and” are separate entries in the source; they are usually repeats but may differ in a detail not shown here. Identical values can stand only once.

Assay [1] has as its target T1, recombinant F1 antigen of Y. pestis, monomer enriched (Yersinia pestis, strain , UniProt P26948).
T1 construct: source: expressed in E. coli; BEI NR-44223, monomer enriched
The assay can be described thus: SPR. The settings on record: both partners purified.

Assay [2] deals with T2, soluble recombinant F1 antigen, monomer-enriched (Yersinia pestis, strain , UniProt P26948).
T2 construct: source: bought: BEI Resources NR-44223, expressed in E. coli, monomer enriched
The assay can be described thus: SPR. To be noted: both partners purified.

B1: αF1Ig 8 (antibody, V domains shown)
VH: QVQLQQWGAGLLKPSETLSLTCAVYGGSFSGYYWSWIRQPPGKGLEWIGEINHSGNTNYNPSLKSRVTISVDTSKNQFSLQLNSVTPEDTAVYYCARTRGYFDLWGRGTLVTVSS
VL: QPVLTQSPSVSVSPGQTASITCSGDKLGDRYASWYQQKPGQSPVLVIYQDTKRPSGIPERFSGSNSGNTATLTISGTQAMDEADYYCQSWDSSAAVFGTGTKLTVL
notes: also called aF1Ig 8; aF1_8; source: HEK293 cells, produced by ATUM; purified IgG
The term Kd denotes the concentration at which binding is half-saturated. Consider B1, for which the Kd in assay [1] is 5.6 nM and 9.7 nM and 7.4 nM and 6 nM.

B2: αF1Ig AM8 (affinity matured anti-F1 immunoglobulin G type 1) (antibody, V domains shown)
VH: B1 VH with H53R
VL: B1 VL with D29G
notes: IgG1; also called aF1Ig AM8; αF1 AM8; source: HEK293 cells, produced by ATUM, purified IgG
With B2, the Kd in assay [2] was 1.9 nM.

B3: αF1Ig AM8 (antibody, V domains shown)
VH: B1 VH with H53R
VL: B1 VL with D29G
notes: also called aF1Ig AM8; source: HEK293 cells, produced by ATUM; purified IgG
B3: in assay [1], the Kd is 1.5 nM and 2.4 nM and 1.3 nM and 1.6 nM.

B4: αF1Ig 8 (parental anti-F1 immunoglobulin G type 1) (antibody, V domains shown)
VH: B1 VH
VL: B1 VL
notes: IgG1; also called parental IgG 8; original anti-F1 IgG 8; source: HEK293 cells, produced by ATUM, purified IgG
Turning to B4, the Kd in assay [2] was found to be 7.4 nM.

B5: αF1Ig AM2 (antibody, V domains shown)
VH: QVQLVESGGGLVKPGGSLRLSCAASGFTFSDYYMSWIRQAPGKGLEWVSYISGSGSIIYYADSVKGRFTISRDNAKNSLYLQMNSLRAEDTAVYYCAKEIRKHDAFDIWGQGTMVTVSS
VL: DIRMTQSPSSLSASVGDRVTITCRASRSISGYLNWYQQKPGKAPKLLIYATSSLQSGVPSRFSGSGSGTDFTLTISSLQPEDFATYYCQQSYSTPSSFGQGTKVDIK
notes: also called aF1Ig AM2; source: HEK293 cells, produced by ATUM; purified IgG
With B5, in assay [1], the Kd is 2.4 nM and 2.3 nM and 1.2 nM.

B6: αF1Ig AM2 (affinity matured anti-F1 immunoglobulin G type 1) (antibody, V domains shown)
VH: B5 VH
VL: B5 VL
notes: IgG1; also called αF1 AM2; source: HEK293 cells, produced by ATUM, purified IgG
As for B6, the Kd in assay [2] was 2.7 nM.

B7: αF1Ig 2 (antibody, V domains shown)
VH: B5 VH with G53S, K102R
VL: not shown
notes: also called aF1Ig 2; aF1_2; source: HEK293 cells, produced by ATUM; purified IgG
Regarding B7, in assay [1], the Kd is 2.2 nM and 1.3 nM and 2.8 nM and 1.2 nM.

B8: αF1Ig 2 (parental anti-F1 immunoglobulin G type 1) (antibody, V domains shown)
VH: B5 VH with G53S, K102R
VL: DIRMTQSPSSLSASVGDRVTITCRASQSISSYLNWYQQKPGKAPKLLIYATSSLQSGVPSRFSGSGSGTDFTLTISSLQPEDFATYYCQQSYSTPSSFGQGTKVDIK
notes: IgG1; also called parental IgG 2; original anti-F1 IgG 2; source: HEK293 cells, produced by ATUM, purified IgG
Regarding B8, in assay [2], the dissociation constant (Kd) came out at 1.9 nM.
